Tested on: Escherichia coli TOP10
Test: shrunken log2 fold change of peptide-encoding DNA abundance (4.5 h post-induction vs induction); higher = less antimicrobial activity (less host growth inhibition)
Settings: time post-induction: 4.5 h; library: site-saturation at positions 5, 18, 19, 20
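Further: peptides expressed intracellularly from a pBAD plasmid library in pooled LB shake-flask culture, induced with 0.3% L-arabinose, DNA abundance read by NGS, three biological replicates, DESeq2 with apeglm shrinkage.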

Row | Sequence | shrunken log2 fold change
1 | RRIRDRPPRLPRPRPRPGQMPRP | -0.0138
2 | RRIRDRPPRLPRPRPRPGQYPRP | -0.0267
3 | RRIRDRPPRLPRPRPRPGRCPRP | 0.53
4 | RRIRDRPPRLPRPRPRPGREPRP | 0.603
5 | RRIRDRPPRLPRPRPRPGRMPRP | 0.174
6 | RRIRDRPPRLPRPRPRPGSGPRP | 0.499
7 | RRIRDRPPRLPRPRPRPGVTPRP | 0.596
8 | RRIRDRPPRLPRPRPRPGYDPRP | 0.0286
9 | RRIRDRPPRLPRPRPRPGYKPRP | -0.121
10 | RRIRDRPPRLPRPRPRPGYTPRP | -0.127
11 | RRIRDRPPRLPRPRPRPHDWPRP | 0.807
12 | RRIRDRPPRLPRPRPRPHENPRP | 0.116
13 | RRIRDRPPRLPRPRPRPHFDPRP | 0.141
14 | RRIRDRPPRLPRPRPRPHFFPRP | 0.152
15 | RRIRDRPPRLPRPRPRPHFNPRP | -0.381
16 | RRIRDRPPRLPRPRPRPHFYPRP | -0.321
17 | RRIRDRPPRLPRPRPRPHLEPRP | -0.169
18 | RRIRDRPPRLPRPRPRPHLPPRP | -0.0459
19 | RRIRDRPPRLPRPRPRPHLQPRP | 0.157
20 | RRIRDRPPRLPRPRPRPHNKPRP | -0.373
21 | RRIRDRPPRLPRPRPRPHNPPRP | -0.231
22 | RRIRDRPPRLPRPRPRPHRYPRP | -0.21
23 | RRIRDRPPRLPRPRPRPHTLPRP | -0.196
24 | RRIRDRPPRLPRPRPRPHVNPRP | 0.000411
25 | RRIRDRPPRLPRPRPRPHVWPRP | 0.0894
26 | RRIRDRPPRLPRPRPRPHWWPRP | 0.272
27 | RRIRDRPPRLPRPRPRPIAAPRP | 0.476
28 | RRIRDRPPRLPRPRPRPIADPRP | 0.163

Row | Sequence | shrunken log2 fold change
29 | RRIRDRPPRLPRPRPRPICCPRP | 0.037
30 | RRIRDRPPRLPRPRPRPIDKPRP | -0.0708
31 | RRIRDRPPRLPRPRPRPIGEPRP | -0.00228
32 | RRIRDRPPRLPRPRPRPIGGPRP | 0.0266
33 | RRIRDRPPRLPRPRPRPIHGPRP | -0.0134
34 | RRIRDRPPRLPRPRPRPIIMPRP | -0.226
35 | RRIRDRPPRLPRPRPRPIKSPRP | -0.236
36 | RRIRDRPPRLPRPRPRPIMPPRP | -0.0491
37 | RRIRDRPPRLPRPRPRPIMRPRP | 0.225
38 | RRIRDRPPRLPRPRPRPINSPRP | -0.292
39 | RRIRDRPPRLPRPRPRPINWPRP | -0.044
40 | RRIRDRPPRLPRPRPRPISQPRP | 0.12
41 | RRIRDRPPRLPRPRPRPISWPRP | 0.0803
42 | RRIRDRPPRLPRPRPRPITPPRP | -0.117
43 | RRIRDRPPRLPRPRPRPITRPRP | 0.0173
44 | RRIRDRPPRLPRPRPRPIVYPRP | -0.0329
45 | RRIRDRPPRLPRPRPRPIWFPRP | -0.192
46 | RRIRDRPPRLPRPRPRPIYSPRP | -0.15
47 | RRIRDRPPRLPRPRPRPIYWPRP | 0.202
48 | RRIRDRPPRLPRPRPRPKAEPRP | -0.0211
49 | RRIRDRPPRLPRPRPRPKAFPRP | -0.00149
50 | RRIRDRPPRLPRPRPRPKAWPRP | 0.107
51 | RRIRDRPPRLPRPRPRPKCVPRP | 0.104
52 | RRIRDRPPRLPRPRPRPKDGPRP | -0.0429
53 | RRIRDRPPRLPRPRPRPKDQPRP | -0.111
54 | RRIRDRPPRLPRPRPRPKIRPRP | -0.0266
55 | RRIRDRPPRLPRPRPRPKKFPRP | 0.117

Source: the supplement of paper PMC9112550, “Optimization of the antimicrobial peptide Bac7 by deep mutational scanning” (BMC Biology, 2022)
